Measurements reported in PMC11533527, “A yeast two-hybrid system to obtain triple-helical ligands from combinatorial random peptide libraries” (The Journal of Biological Chemistry, 2024).

Assays:
[1] = molecular target: T1, glutathione S-transferase (GST)-PEDF-fusion protein (mouse, UniProt P97298 20-417); test: ELISA; competitive ELISA: wells coated with 10 μg/ml collagen I; annealed peptides preincubated with 3 nM GST-PEDF for 10 min at room temperature in 20 mM HEPES-Na pH 7.4, 100 mM NaCl, 0.005% Tween 20; 90 min at 4 °C in the wells; HRP-anti-GST detection; conditions: both partners purified
T1 construct: pigment epithelium-derived factor (PEDF); also called GST-fused PEDF; recombinant PEDF
T1 sequence (looked up): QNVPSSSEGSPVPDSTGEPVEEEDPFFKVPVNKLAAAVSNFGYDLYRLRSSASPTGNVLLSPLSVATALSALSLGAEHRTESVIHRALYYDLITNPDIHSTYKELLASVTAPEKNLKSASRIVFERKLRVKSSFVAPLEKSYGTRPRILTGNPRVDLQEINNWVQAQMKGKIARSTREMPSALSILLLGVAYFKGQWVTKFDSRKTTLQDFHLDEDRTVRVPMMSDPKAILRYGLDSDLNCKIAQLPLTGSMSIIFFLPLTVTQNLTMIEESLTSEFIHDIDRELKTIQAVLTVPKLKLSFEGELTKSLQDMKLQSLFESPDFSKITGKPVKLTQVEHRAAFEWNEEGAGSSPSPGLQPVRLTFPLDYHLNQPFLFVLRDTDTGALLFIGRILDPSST

[2] = molecular target: the molecule itself; test: circular dichroism with thermal melting; peptides in PBS, heated at 95 °C, annealed at 4 °C overnight; [θ]225 followed from 4 to 85 °C; chains of one peptide forming a triple helix

B1: synthetic triple-helical peptide pep8 (peptide)
chain: YPPGPPGPPGPPGPRGPRGLLGLPGPPGPPGPPGPPG
HELM: PEPTIDE1{Y.P.[Hyp].G.P.[Hyp].G.P.[Hyp].G.P.[Hyp].G.P.R.G.P.R.G.L.L.G.L.[Hyp].G.P.[Hyp].G.P.[Hyp].G.P.[Hyp].G.P.[Hyp].G.[am]}$$$$V2.0; N-terminus assumed
SMILES: CC(C)C[C@H](NC(=O)CNC(=O)[C@H](CCCNC(=N)N)NC(=O)[C@@H]1CCCN1C(=O)CNC(=O)[C@H](CCCNC(=N)N)NC(=O)[C@@H]1CCCN1C(=O)CNC(=O)[C@@H]1C[C@@H](O)CN1C(=O)[C@@H]1CCCN1C(=O)CNC(=O)[C@@H]1C[C@@H](O)CN1C(=O)[C@@H]1CCCN1C(=O)CNC(=O)[C@@H]1C[C@@H](O)CN1C(=O)[C@@H]1CCCN1C(=O)CNC(=O)[C@@H]1C[C@@H](O)CN1C(=O)[C@@H]1CCCN1C(=O)[C@@H](N)Cc1ccc(O)cc1)C(=O)N[C@@H](CC(C)C)C(=O)NCC(=O)N[C@@H](CC(C)C)C(=O)N1C[C@H](O)C[C@H]1C(=O)NCC(=O)N1CCC[C@H]1C(=O)N1C[C@H](O)C[C@H]1C(=O)NCC(=O)N1CCC[C@H]1C(=O)N1C[C@H](O)C[C@H]1C(=O)NCC(=O)N1CCC[C@H]1C(=O)N1C[C@H](O)C[C@H]1C(=O)NCC(=O)N1CCC[C@H]1C(=O)N1C[C@H](O)C[C@H]1C(=O)NCC(N)=O
notes: Triple helix by CD; annealed before use; source: synthetic peptide (Fmoc solid phase, RP-HPLC purified)
IC50 [1]: > 10 µM
binding result [2]: binds
